The source of these data is US20140094417A1.

The assay has as its target CD22 (UniProt P20273). The experiment in a line: cell-based or functional assay.
Chain of UniProt P20273 (P20273 20-847 limits assumed): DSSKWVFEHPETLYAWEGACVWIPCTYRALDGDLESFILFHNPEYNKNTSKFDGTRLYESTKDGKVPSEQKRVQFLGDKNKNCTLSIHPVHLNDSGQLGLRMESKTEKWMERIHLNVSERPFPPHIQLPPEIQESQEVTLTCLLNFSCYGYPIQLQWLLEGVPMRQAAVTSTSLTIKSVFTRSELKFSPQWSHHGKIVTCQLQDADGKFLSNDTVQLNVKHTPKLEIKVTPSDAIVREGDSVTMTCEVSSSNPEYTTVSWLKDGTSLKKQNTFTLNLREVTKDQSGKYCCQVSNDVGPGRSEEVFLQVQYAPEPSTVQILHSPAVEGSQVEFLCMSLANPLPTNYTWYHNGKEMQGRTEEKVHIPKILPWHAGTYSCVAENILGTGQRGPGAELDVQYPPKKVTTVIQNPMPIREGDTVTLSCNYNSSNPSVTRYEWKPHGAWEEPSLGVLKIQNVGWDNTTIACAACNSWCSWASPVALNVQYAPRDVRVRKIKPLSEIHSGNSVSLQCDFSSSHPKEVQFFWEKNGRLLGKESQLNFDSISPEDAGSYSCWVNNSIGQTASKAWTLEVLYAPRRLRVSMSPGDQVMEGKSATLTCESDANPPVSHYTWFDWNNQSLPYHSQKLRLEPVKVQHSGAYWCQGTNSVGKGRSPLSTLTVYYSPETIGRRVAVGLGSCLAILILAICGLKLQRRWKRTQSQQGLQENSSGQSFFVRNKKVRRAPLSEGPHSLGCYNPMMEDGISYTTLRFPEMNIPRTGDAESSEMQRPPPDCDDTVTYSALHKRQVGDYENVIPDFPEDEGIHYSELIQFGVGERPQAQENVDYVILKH

For the substance HA22-LO10, the IC50 (ng/ml), cytotoxic activity on CA46 is 0.38 ng/mL; the IC50 (ng/ml), cytotoxic activity on Daudi turned out to be 0.3 ng/mL; the IC50 (ng/ml), cytotoxic activity on Raji was determined as 1.5 ng/mL; the activity on CA46 relative to HA22-LR amounted to 29%. Besides, the activity on Daudi relative to HA22-LR came to 60% and the activity on Raji relative to HA22-LR turned out to be 27%.

Take HA22-LR: the IC50 (ng/ml), cytotoxic activity on CA46 turned out to be 0.11 ng/mL; the IC50 (ng/ml), cytotoxic activity on Daudi amounted to 0.18 ng/mL; the IC50 (ng/ml), cytotoxic activity on Raji is 0.41 ng/mL.
